Measurements reported in publication PMC9814837, “Design of a gold clustering site in an engineered apo-ferritin cage” (Communications Chemistry, 2022).

Target: the molecule itself
Experiment: crystal structure; hanging-drop vapor diffusion, 0.5-1 M (NH4)2SO4 and 10-20 mM CdSO4, 20 °C; data at 100 K; space group F432, cage rebuilt by symmetry; apo protein and composites after reaction with 10-400 equiv. Au(I) precursor

B1: apo-R168H/L169C-rHLFr (recombinant L-chain ferritin from horse liver, R168H/L169C mutant) (natural protein, UniProt P02791 1-175, looked up)
chain: MSSQIRQNYSTEVEAAVNRLVNLYLRASYTYLSLGFYFDRDDVALEGVCHFFRELAEEKREGAERLLKMQNQRGGRALFQDLQKPSQDEWGTTLDAMKAAIVLEKSLNQALLDLHALGSAQADPHLCDFLESHFLDEEVKLIKKMGDHLTNIQRLVGSQAGLGEYLFEHCTLKHD
notes: ferritin L-chain, horse liver, recombinant (rHLFr); last residue named is Asp174; Crystallised apo and after reaction with 10-400 equiv. of chloro(dimethylsulfide)gold(I); also called Au(10 equiv.)-apo-R168H/L169C-rHLFr; Au(50 equiv.)-apo-R168H/L169C-rHLFr; source: E. coli (NovaBlue, vector pMK2), purified (heat treatment, Q Sepharose, S-300); copies: 24
binding result: binds
